Test results reported in publication PMC10980208, “A novel micellular fluorogenic substrate for quantitating the activity of 1-phosphatidylinositol 4,5-bisphosphate phosphodiesterase gamma (PLCγ) enzymes” (PLOS ONE, 2024).

Substrate: CCCCCCCCCCCCCCCCOc1cc(COC(=O)Nc2ccc3c(C(F)(F)F)cc(=O)oc3c2)ccc1OP(=O)(O)O[C@@H]1[C@H](O)[C@H](O)[C@@H](OP(=O)(O)O)[C@H](OP(=O)(O)O)[C@H]1O
Test: purified protein
Conditions: Ca2+

Protein	Km	Vmax	kcat	kcat/Km
PLCγ2 (Homo sapiens) (protein) MSTTVNVDSLAEYEKSQIKRALELGTVMTVFSFRKSTPERRTVQVIMETRQVAWSKTADKIEGFLDIMEIKEIRPGKNSKDFERAKAVRQKEDCCFTILYGTQFVLSTLSLAADSKEDAVNWLSGLKILHQEAMNASTPTIIESWLRKQIYSVDQTRRNSISLRELKTILPLINFKVSSAKFLKDKFVEIGAHKDELSFEQFHLFYKKLMFEQQKSILDEFKKDSSVFILGNTDRPDASAVYLHDFQRFLIHEQQEHWAQDLNKVRERMTKFIDDTMRETAEPFLFVDEFLTYLFSRENSIWDEKYDAVDMQDMNNPLSHYWISSSHNTYLTGDQLRSESSPEAYIRCLRMGCRCIELDCWDGPDGKPVIYHGWTRTTKIKFDDVVQAIKDHAFVTSSFPVILSIEEHCSVEQQRHMAKAFKEVFGDLLLTKPTEASADQLPSPSQLREKIIIKHKKLGPRGDVDVNMEDKKDEHKQQGELYMWDSIDQKWTRHYCAIADAKLSFSDDIEQTMEEEVPQDIPPTELHFGEKWFHKKVEKRTSAEKLLQEYCMETGGKDGTFLVRESETFPNDYTLSFWRSGRVQHCRIRSTMEGGTLKYYLTDNLTFSSIYALIQHYRETHLRCAEFELRLTDPVPNPNPHESKPWYYDSLSRGEAEDMLMRIPRDGAFLIRKREGSDSYAITFRARGKVKHCRINRDGRHFVLGTSAYFESLVELVSYYEKHSLYRKMRLRYPVTPELLERYNMERDINSLYDVSRMYVDPSEINPSMPQRTVKALYDYKAKRSDELSFCRGALIHNVSKEPGGWWKGDYGTRIQQYFPSNYVEDISTADFEELEKQIIEDNPLGSLCRGILDLNTYNVVKAPQGKNQKSFVFILEPKQQGDPPVEFATDRVEELFEWFQSIREITWKIDTKENNMKYWEKNQSIAIELSDLVVYCKPTSKTKDNLENPDFREIRSFVETKADSIIRQKPVDLLKYNQKGLTRVYPKGQRVDSSNYDPFRLWLCGSQMVALNFQTADKYMQMNHALFSLNGRTGYVLQPESMRTEKYDPMPPESQRKILMTLTVKVLGARHLPKLGRSIACPFVEVEICGAEYDNNKFKTTVVNDNGLSPIWAPTQEKVTFEIYDPNLAFLRFVVYEEDMFSDPNFLAHATYPIKAVKSGFRSVPLKNGYSEDIELASLLVFCEMRPVLESEEELYSSCRQLRRRQEELNNQLFLYDTHQNLRNANRDALVKEFSVNENQLQLYQEKCNKRLREKRVSNSKFYS	4.6 ± 0.8 µM	0.019 µmol/min/mg	0.045 ± 0.00333 s⁻¹	10000 ± 1670 M⁻¹ s⁻¹
PLCγ1 (Homo sapiens) (protein) AGAASPCANGCGPGAPSDAEVLHLCRSLEVGTVMTLFYSKKSQRPERKTFQVKLETRQITWSRGADKIEGAIDIREIKEIRPGKTSRDFDRYQEDPAFRPDQSHCFVILYGMEFRLKTLSLQATSEDEVNMWIKGLTWLMEDTLQAPTPLQIERWLRKQFYSVDRNREDRISAKDLKNMLSQVNYRVPNMRFLRERLTDLEQRSGDITYGQFAQLYRSLMYSAQKTMDLPFLEASTLRAGERPELCRVSLPEFQQFLLDYQGELWAVDRLQVQEFMLSFLRDPLREIEEPYFFLDEFVTFLFSKENSVWNSQLDAVCPDTMNNPLSHYWISSSHNTYLTGDQFSSESSLEAYARCLRMGCRCIELDCWDGPDGMPVIYHGHTLTTKIKFSDVLHTIKEHAFVASEYPVILSIEDHCSIAQQRNMAQYFKKVLGDTLLTKPVEISADGLPSPNQLKRKILIKHKKLAEGSAYEEVPTSMMYSENDISNSIKNGILYLEDPVNHEWYPHYFVLTSSKIYYSEETSSDQGNEDEEEPKEVSSSTELHSNEKWFHGKLGAGRDGRHIAERLLTEYCIETGAPDGSFLVRESETFVGDYTLSFWRNGKVQHCRIHSRQDAGTPKFFLTDNLVFDSLYDLITHYQQVPLRCNEFEMRLSEPVPQTNAHESKEWYHASLTRAQAEHMLMRVPRDGAFLVRKRNEPNSYAISFRAEGKIKHCRVQQEGQTVMLGNSEFDSLVDLISYYEKHPLYRKMKLRYPINEEALEKIGTAEPDYGALYEGRNPGFYVEANPMPTFKCAVKALFDYKAQREDELTFIKSAIIQNVEKQEGGWWRGDYGGKKQLWFPSNYVEEMVNPVALEPEREHLDENSPLGDLLRGVLDVPACQIAIRPEGKNNRLFVFSISMASVAHWSLDVAADSQEELQDWVKKIREVAQTADARLTEGKIMERRKKIALELSELVVYCRPVPFDEEKIGTERACYRDMSSFPETKAEKYVNKAKGKKFLQYNRLQLSRIYPKGQRLDSSNYDPLPMWICGSQLVALNFQTPDKPMQMNQALFMTGRHCGYVLQPSTMRDEAFDPFDKSSLRGLEPCAISIEVLGARHLPKNGRGIVCPFVEIEVAGAEYDSTKQKTEFVVDNGLNPVWPAKPFHFQISNPEFAFLRFVVYEEDMFSDQNFLAQATFPVKGLKTGYRAVPLKNNYSEDLELASLLIKIDIFPAKENGDLSPFSGTSLRERGSDASGQLFHGRAREGSFESRYQQPFEDFRISQEHLADHFDSRERRAPRRTRVNGDNRL	27.7 ± 14.5 µM	0.35 µmol/min/mg	0.833 ± 0.367 s⁻¹	32700 ± 6670 M⁻¹ s⁻¹
